Source: US12295987B2, “Method of using a GIP/GLP1 co-agonist for diabetes” (Eli Lilly and Company, priority 2018, dated 2025)
Numbered stars: 1 amine (or outer) side, 2 acyl side, 3 side chain; on linkers, the order of the positions; unused ones are H or OH. Square brackets hold non-standard residues; d marks the D form. Side chains are listed from the residue outwards. Ends that are not written are not given here. * marks the point of attachment. C20 diacid = O=C(O)CCCCCCCCCCCCCCCCCCC(=O)*; γGlu = O=C(O)[C@H](CCC(=O)[*:2])N[*:1]; AEEA = NCCOCCOCC(=O)O; Aib = CC(C)(N)C(=O)O

What follows are substances tested against T1, human gastric inhibitory peptide receptor (hGIPR) (Homo sapiens, UniProt P48546) (assay: cAMP pharmacological functional assay in presence of 0.1% casein, hGIPR). Details: ratio of hGIPR to hGLP1R cAMP EC50 ratios.
T1 construct: expressed in transfected cells; host or cells: HEK293
T1 sequence (P48546 22-466): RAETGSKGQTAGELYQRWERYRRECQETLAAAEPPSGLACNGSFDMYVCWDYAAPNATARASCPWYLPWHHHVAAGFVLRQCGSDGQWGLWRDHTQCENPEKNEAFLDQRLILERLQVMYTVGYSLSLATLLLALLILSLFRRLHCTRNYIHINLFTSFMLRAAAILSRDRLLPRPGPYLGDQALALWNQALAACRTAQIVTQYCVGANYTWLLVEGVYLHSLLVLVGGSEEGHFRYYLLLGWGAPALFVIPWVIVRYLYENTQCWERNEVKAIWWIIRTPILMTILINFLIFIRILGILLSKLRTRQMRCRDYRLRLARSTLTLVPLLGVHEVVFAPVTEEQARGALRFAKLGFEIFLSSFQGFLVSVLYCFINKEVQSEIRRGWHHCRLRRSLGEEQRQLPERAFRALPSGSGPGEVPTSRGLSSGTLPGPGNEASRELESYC
Type: cell-based
For “Y-Aib-EGTFTSDYSI-αMeL-LDKK((2-[2-(2-Amino-ethoxy)-ethoxy]-acetyl)2-(γGlu)-CO—(CH2)18—CO2H)AQ-Aib-AFIEYLIEGG-NH2 (YXEGTFTSDYSIXLDKKAQXAFIEYLIEGG; Aib, αMeL; K lipidated C20 diacid-γGlu-AEEA2; C-terminal amide; (2)..(2) Xaa at position 2 is Aib; (13)..(13) Xaa at position 13 is alpha-methyl-Leu; MOD_RES (17)..(17) Lys at position 17 is chemically modified by conjugation of the epsilon-amino group of the Lys side chain with (2-[2-(2-amino-ethoxy)-ethoxy]-acetyl)2-(gamma-Glu)-CO-(CH2)18- CO2H; (20)..(20) Xaa at position 20 is Aib; MOD_RES (30)..(30) Gly at position 30 is amidated) [Peptide 62]”, the “[hGIPR/hGLP1R] EC50 Ratio” value was 5.03. “Y-Aib-EGT-αMeF(2F)-TSDYSI-αMeL-LD-Dap-K((2-[2-(2-Amino-ethoxy)-ethoxy]-acetyl)2-(γGlu)-CO—(CH2)18—CO2H)AQ-Aib-EFI-(D-Glu)-YLIEGGPSSGAPPPS-NH2 (YXEGTXTSDYSIXLDXKAQXEFIXYLIEGGPSSGAPPPS; Aib, αMeF(2F), αMeL, Dap, D-Glu; lipidated K; amide; (2)..(2) Xaa at position 2 is Aib; (6)..(6) Xaa at position 6 is alpha-methyl-Phe(2F); (13)..(13) Xaa at position 13 is alpha-methyl-Leu; (16)..(16) Xaa at position 16 is Dap; MOD_RES (17)..(17) Lys at position 17 is chemically modified by conjugation of the epsilon-amino group of the Lys side chain with (2-[2-(2-amino-ethoxy)-ethoxy]-acetyl)2-(gamma-Glu)-CO-(CH2)18- CO2H; (20)..(20) Xaa at positi) [Peptide 218]” was tested, and the “[hGIPR/hGLP1R] EC50 Ratio” value was 4.34. For “Y-Aib-EGT-αMeF(2F)-TSDYSI-Aib-LD-Orn-K((2-[2-(2-Amino-ethoxy)-ethoxy]-acetyl)2-(Glu)-CO—(CH2)16—CO2H)AQ-Aib-EFI-(D-Glu)-YLIEGGPSSGAPPPS-NH2 (YXEGTXTSDYSIXLDXKAQXEFIXYLIEGGPSSGAPPPS; Aib, Orn, αMeF(2F), lipidated Lys, D-Glu, amide; (2)..(2) Xaa at position 2 is Aib; (6)..(6) Xaa at position 6 is alpha-methyl-Phe(2F); (13)..(13) Xaa at position 13 is Aib; (16)..(16) Xaa at position 16 is Orn; MOD_RES (17)..(17) Lys at position 17 is chemically modified by conjugation of the epsilon-amino group of the Lys side chain with (2-[2-(2-amino-ethoxy)-ethoxy]-acetyl)2-(gamma-Glu)-CO-(CH2)16- CO2H; (20)..(20) Xaa at position 20 is Aib;) [Peptide 247]”, the “[hGIPR/hGLP1R] EC50 Ratio” value was 4.20. “Y-Aib-Aad-GTFTSDYSILLDKK((2-[2-(2-Amino-ethoxy)-ethoxy]-acetyl)2-(γGlu)-CO—(CH2)18—CO2H)AQ-Aib-AFIEYLIEGGPSSGAPPPS-NH2 (YXXGTFTSDYSILLDKKAQXAFIEYLIEGGPSSGAPPPS; Aib, Aad, lipidated Lys, C-terminal amide; (2)..(2) Xaa at position 2 is Aib; (3)..(3) Xaa at position 3 is Aad; MOD_RES (17)..(17) Lys at position 17 is chemically modified by conjugation of the epsilon-amino group of the Lys side chain with (2-[2-(2-amino-ethoxy)-ethoxy]-acetyl)2-(gamma-Glu)-CO-(CH2)18- CO2H; (20)..(20) Xaa at position 20 is Aib; MOD_RES (39)..(39) Ser at position 39 is amidated) [Peptide 89]” was tested, and the “[hGIPR/hGLP1R] EC50 Ratio” value was 8.97. With “Y-Aib-EGT-αMeF(2F)-TSDYSILLDEK((2-[2-(2-Amino-ethoxy)-ethoxy]-acetyl)2-(γGlu)-CO—(CH2)18—CO2H)AQ-Aib-EFI-(D-Glu)-YLIEGGPSSGAPPPS-NH2 (YXEGTXTSDYSILLDEKAQXEFIXYLIEGGPSSGAPPPS; Aib, αMeF(2F), D-Glu; lipidated K; amide; (2)..(2) Xaa at position 2 is Aib; (6)..(6) Xaa at position 6 is alpha-methyl-Phe(2F); MOD_RES (17)..(17) Lys at position 17 is chemically modified by conjugation of the epsilon-amino group of the Lys side chain with (2-[2-(2-amino-ethoxy)-ethoxy]-acetyl)2-(gamma-Glu)-CO-(CH2)18- CO2H; (20)..(20) Xaa at position 20 is Aib; (24)..(24) Xaa at position 24 is D-Glu; MOD_RES (39)..(39) Ser at position) [Peptide 226]” the “[hGIPR/hGLP1R] EC50 Ratio” value was 3.42. “Y-Aib-EGT-αMeF(2F)-TSD-4Pal-SI-αMeL-LD-Orn-K((2-[2-(2-Amino-ethoxy)-ethoxy]-acetyl)2-(εK)-CO—(CH2)18—CO2H)AQ-Aib-AFI-(D-Glu)-αMeY-LIEGGPSSGAPPPS-NH2 (YXEGTXTSDXSIXLDXKAQXAFIXXLIEGGPSSGAPPPS; Aib, 4Pal, Orn, αMe residues, lipidated Lys, D-Glu, amide; (2)..(2) Xaa at position 2 is Aib; (6)..(6) Xaa at position 6 is alpha-methyl-Phe(2F); (10)..(10) Xaa at position 10 is 4Pal; (13)..(13) Xaa at position 13 is alpha-methyl-Leu; (16)..(16) Xaa at position 16 is Orn; MOD_RES (17)..(17) Lys at position 17 is chemically modified by conjugation of the epsilon-amino group of the Lys side chain with (2-[2-(2-amino-ethoxy)-ethoxy]-acetyl)2-(epsilon-Lys)-C) [Peptide 251]” was tested, and the “[hGIPR/hGLP1R] EC50 Ratio” value was 3.74. With “Y-Aib-EGTFTSDYSIK((2-[2-(2-Amino-ethoxy)-ethoxy]-acetyl)2-(γGlu)-CO—(CH2)18—CO2H)LDKIAQ-Aib-AFIEYLIEGGPSSGAPPPS-NH2 (Y[Aib]EGTFTSDYSIK([AEEA-AEEA-γGlu-C20 diacid])LDKIAQ[Aib]AFIEYLIEGGPSSGAPPPS-NH2; N-terminus assumed; SMILES CC[C@H](C)[C@H](NC(=O)[C@H](CCCCN)NC(=O)[C@H](CC(=O)O)NC(=O)[C@H](CC(C)C)NC(=O)[C@H](CCCCNC(=O)COCCOCCNC(=O)COCCOCCNC(=O)CC[C@H](NC(=O)CCCCCCCCCCCCCCCCCCC(=O)O)C(=O)O)NC(=O)[C@@H](NC(=O)[C@H](CO)NC(=O)[C@H](Cc1ccc(O)cc1)NC(=O)[C@H](CC(=O)O)NC(=O)[C@H](CO)NC(=O)[C@@H](NC(=O)[C@H](Cc1ccccc1)NC(=O)[C@@H](NC(=O)CNC(=O)[C@H](CCC(=O)O)NC(=O)C(C)(C)NC(=O)[C@@H](N)Cc1ccc(O)cc1)[C@@H](C)O)[C@@H](C)O)[C@@H](C)CC)C(=O)N[C@@H](C)C(=O)N[C@@H](CCC(N)=O)C(=O)NC(C)(C)C(=O)N[C@@H](C)C(=O)N[C@@H](Cc1ccccc1)C(=O)N[C@H](C(=O)N[C@@H](CCC(=O)O)C(=O)N[C@@H](Cc1ccc(O)cc1)C(=O)N[C@@H](CC(C)C)C(=O)N[C@H](C(=O)N[C@@H](CCC(=O)O)C(=O)NCC(=O)NCC(=O)N1CCC[C@H]1C(=O)N[C@@H](CO)C(=O)N[C@@H](CO)C(=O)NCC(=O)N[C@@H](C)C(=O)N1CCC[C@H]1C(=O)N1CCC[C@H]1C(=O)N1CCC[C@H]1C(=O)N[C@@H](CO)C(N)=O)[C@@H](C)CC)[C@@H](C)CC) [Peptide 26]” the “[hGIPR/hGLP1R] EC50 Ratio” value was 2.46. In the case of “Y-Aib-EGT-αMeF(2F)-TSDYSI-αMeL-LDEK((2-[2-(2-Amino-ethoxy)-ethoxy]-acetyl)2-(γGlu)-CO—(CH2)18—CO2H)AQ-Aib-EFIE-αMeY-LIEGGPSSGAPPPS-NH2 (YXEGTXTSDYSIXLDEKAQXEFIEXLIEGGPSSGAPPPS; Aib, αMeF(2F), αMeL, αMeY; lipidated K; amide; (2)..(2) Xaa at position 2 is Aib; (6)..(6) Xaa at position 6 is alpha-methyl-Phe(2F); (13)..(13) Xaa at position 13 is alpha-methyl-Leu; MOD_RES (17)..(17) Lys at position 17 is chemically modified by conjugation of the epsilon-amino group of the Lys side chain with (2-[2-(2-amino-ethoxy)-ethoxy]-acetyl)2-(gamma-Glu)-CO-(CH2)18- CO2H; (20)..(20) Xaa at position 20 is Aib; (25)..(25) Xaa at positi) [Peptide 223]”, the “[hGIPR/hGLP1R] EC50 Ratio” value is reported as 3.05.
